Assay results: patent US20080274100A1
Where a chain is given by its changes, count along the chain named. Where two headings read alike, the source gives them in different places.

B1: S1 scFv (scFv)
scFv: EVQLVESGGGVVRPGGSLRLSCAASGFTFDLNPKVKHMWVRQAPGKGLEWVSGINWNGGSTGYADSVKGRFTISRDNAKNSLYLQMNSLRAEDTAVYYCARLRPPFLWGQGTLVTVSRGGGGSGGGGSGGGGSSELTQDPAVSVALGQTVRITCQGDSLRSYYASWYQQKPGQAPVLVIYGKNNRPSGIPDRFSGSSSGNTASLTITGAQAEDEADYYCNSRDSSGNHVVFGGGTKLTVLGAAAEQKLISEEDLNGAA
B2: S11 scFv (scFv)
scFv: B1 scFv with P104Y, L107F

Experiments:
[1] = target: GPIb on human platelets (human) (UniProt P07359); assay: FACS on human platelets
Sequence of GPIb on human platelets (human) (P07359 17-652): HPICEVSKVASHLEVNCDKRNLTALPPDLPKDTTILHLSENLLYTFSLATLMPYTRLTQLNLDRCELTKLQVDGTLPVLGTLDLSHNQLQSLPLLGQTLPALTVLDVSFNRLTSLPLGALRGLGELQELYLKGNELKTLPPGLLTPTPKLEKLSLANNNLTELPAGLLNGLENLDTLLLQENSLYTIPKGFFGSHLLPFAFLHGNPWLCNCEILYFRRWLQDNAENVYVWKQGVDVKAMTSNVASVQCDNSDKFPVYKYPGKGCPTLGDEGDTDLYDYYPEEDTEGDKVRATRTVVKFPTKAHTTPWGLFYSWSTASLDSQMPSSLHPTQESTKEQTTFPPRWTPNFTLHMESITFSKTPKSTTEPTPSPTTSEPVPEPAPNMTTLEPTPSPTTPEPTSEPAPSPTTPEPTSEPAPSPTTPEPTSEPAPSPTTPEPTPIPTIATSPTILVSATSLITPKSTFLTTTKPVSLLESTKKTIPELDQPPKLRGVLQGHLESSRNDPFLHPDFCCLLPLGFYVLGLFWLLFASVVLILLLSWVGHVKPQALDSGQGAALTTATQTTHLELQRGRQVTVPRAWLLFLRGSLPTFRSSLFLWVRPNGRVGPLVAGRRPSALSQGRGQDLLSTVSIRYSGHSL

[2] = target: CCR5 (residues 1-18) derived peptide, non-sulfated; assay: peptide ELISA, 0.5 µg/well scFv
[3] = target: CCR5 (residues 1-18) derived peptide, sulfated at 1st tyrosine position; assay: peptide ELISA, 0.5 µg/well scFv
[4] = target: CCR5 (residues 1-18) derived peptide, sulfated at 2nd tyrosine position; assay: peptide ELISA, 0.5 µg/well scFv
[5] = target: CCR5 (residues 1-18) derived peptide, sulfated at 3rd tyrosine position; assay: peptide ELISA, 0.5 µg/well scFv
[6] = target: GPIb (residues 268-285) derived peptide, non-sulfated; assay: peptide ELISA, 0.5 µg/well scFv
[7] = target: GPIb (residues 268-285) derived peptide, sulfated at 1st tyrosine position; assay: peptide ELISA, 0.5 µg/well scFv
[8] = target: GPIb (residues 268-285) derived peptide, sulfated at 3rd tyrosine position; assay: peptide ELISA, 0.5 µg/well scFv
[9] = target: PSGL-1 (residues 42-58) derived peptide, non-sulfated; assay: peptide ELISA, 0.5 µg/well scFv
[10] = target: PSGL-1 (residues 42-58) derived peptide, sulfated at 1st tyrosine position; assay: peptide ELISA, 0.5 µg/well scFv
[11] = target: PSGL-1 (residues 42-58) derived peptide, sulfated at 2nd tyrosine position; assay: peptide ELISA, 0.5 µg/well scFv
[12] = target: PSGL-1 (residues 42-58) derived peptide, sulfated at 3rd tyrosine position; assay: peptide ELISA, 0.5 µg/well scFv
[13] = target: CCR5 (residues 1-18) derived peptide, sulfated at 2nd tyrosine position; assay: peptide ELISA, 0.5 µg/well scFv; remark: listed apart in the source
[14] = target: GPIb (residues 268-285) derived peptide, sulfated at 1st tyrosine position; assay: peptide ELISA, 0.5 µg/well scFv; remark: listed apart in the source
[15] = target: GPIb (residues 268-285) derived peptide, sulfated at 3rd tyrosine position; assay: peptide ELISA, 0.5 µg/well scFv; remark: listed apart in the source
[16] = target: PSGL-1 (residues 42-58) derived peptide, sulfated at 3rd tyrosine position; assay: peptide ELISA, 0.5 µg/well scFv; remark: listed apart in the source

Binder | fold binding capacity relative to Y1 [1] | ELISA read-out at 450 nm [2] | ELISA read-out at 450 nm [3] | ELISA read-out at 450 nm [4] | ELISA read-out at 450 nm [5] | ELISA read-out at 450 nm [6] | ELISA read-out at 450 nm [7] | ELISA read-out at 450 nm [8] | ELISA read-out at 450 nm [9] | ELISA read-out at 450 nm [10] | ELISA read-out at 450 nm [11] | ELISA read-out at 450 nm [12] | ELISA read-out at 450 nm [13] | ELISA read-out at 450 nm [14] | ELISA read-out at 450 nm [15] | ELISA read-out at 450 nm [16]
B1 | 25 fold | 0.06 OD 450 nm | 0.07 OD 450 nm | 0.3 OD 450 nm | 0.07 OD 450 nm | 0.07 OD 450 nm | 0.8 OD 450 nm | 0.15 OD 450 nm | 0.07 OD 450 nm | 0.1 OD 450 nm | 0.08 OD 450 nm | 0.8 OD 450 nm |  |  |  | 
B2 |  | 0.08 OD 450 nm |  |  |  | 0.1 OD 450 nm |  |  | 0.01 OD 450 nm |  |  |  | 0.7 OD 450 nm | 0.6 OD 450 nm | 0.3 OD 450 nm | 0.7 OD 450 nm
